“Also recorded” adds a separate entry of the source.

In one test the test system is granulocytes. The test is described as follows: Granulocyte reactivity, whole-blood indirect fluorescent flow cytometric analysis. It counts as binding. As for the experimental part: Hybridoma supernatants were screened for CEA reactive antibody by the ROCHE® ^125I-CEA radioimmunoassay (RIA) in 0.01 and 0.10 M NH4 acetate buffer. Positive clones were recloned. The granulocyte reactivity of CEA-reactive MAb was determined by whole-blood indirect fluorescent flow cytometric analysis (Sharkey et al. Cancer Res., 1990, 50:2823-31). Two MAb with properties similar to those of NP-2 and NP-3, designated MN-2 and MN-6, were selected for additional development.
Immunoreactivity with blood lymphocytes was determined by live-cell indirect immunofluorescence, with the use of the whole blood staining method developed for use with the ORTHO SPECTRUM® I11 flow cytometer (Ortho Diagnostic Systems, Inc., Raritan, N.J.). Tissue reactivity of the MAb was determined by immunohistologic examination performed on frozen sections and 5-μm sections cut from tissue embedded in Paraplast-II. Indirect immunofluorescence on frozen sections was performed as previously described, with MAb concentrations of 20 μg/ml (Pawlak-Byczkowska et al., Cancer Res 1989, 49:4568-77).
In general terms: Flow cytometry measures light scatter and fluorescence of single cells or particles in a stream.

A further test has as its system NCA, MA, CEA. The test is described as follows: Specificity for NCA, MA and CEA. It counts as binding. The source says: In 1983, Primus et al. described the first panel of MAbs (NP-1, NP-2, NP-3, and NP-4) that defined NCA-cross-reactive, MA-cross-reactive, and CEA-specific epitopes on the CEA molecule (Primus et al., Cancer Res 1983, 43:686-92). […] The “ion-sensitive” determinant on CEA first was delineated by Hansen et al. (Clin Res 1971, 19:143) using unadsorbed anti-CEA polyclonal serum, and subsequently by Haskell et al. (Cancer Res 1983, 43:3857-64) with MAb. NP-2 and NP-3 react with MA and CEA but not with NCA, whereas NP-4 reacts only with CEA (Primus et al., 1983). […] The present Example describes the production and characterization of a second generation of anti-CEA antibodies, including the MN-15 Class I anti-CEA MAb.
The reagents, formulation, standards, and assay protocol of the sandwich EIA used in these studies have been described elsewhere (Hansen et al., Clin Chem 1989, 35:146-51). All assays were performed with microwells coated with NP-1, except in one experiment, in which microwells were coated with MN-15. […] After the second incubation, the amount of probe bound to CEA was determined by washing out the unbound probe, adding substrate (o-phenylenediamine/hydrogen peroxide), adding acid to stop the reaction, and quantitating the color product by reading the adsorbance at 490 nm. […]

The subject of test [1] is CaPAN-1 adhesion to fibronectin. The test is described as follows: Adhesion to extracellular matrix proteins assay, CaPAN-1. The test is classed as cell-based, human. As to the method: (§1) Adhesion to extracellular matrix proteins assay—The assay was done using the CYTOMATRIX™ screening kit from CHEMICON® (Kit #ECM205, Temecula, Calif.). The kit contains 96-well plates with strips coated with fibronectin, vitronectin, laminin, collagen-I, or collagen-IV. Subconfluent cell cultures were used for these studies. Cells (1×10^6 cells/mol) were seeded onto coated substrate and incubated at 37° C. for 1 hour in a CO2 incubator in PBS containing Ca^2+/Mg^2+ (200 μL per well). Adherent cells were fixed and stained. The plate was washed to remove unadhered cells and stained with 100 μL per well of MTS (Cell Titer Aq 96, PROMEGA®, Madison, Wis.) for 5 minutes at room temperature. Excess stain was removed with three PBS washes. Solubilization buffer [100 μL of a 50:50 mixture of 0.1 mol/L NaH2PO4 (pH 4.5) and 50% ethanol] was added to each well. Relative attachment was determined using absorbance readings (A540 nm-A570 nm).

For test [2], the system named is ZR75-30 binding to fibronectin. Nature of the test: Adhesion to extracellular matrix proteins assay, ZR75-30. The test is classed as cell-based, human. As to the method:
as §1

The target in a further test is T1, NCA-95 (HeLa-CGM6/1) (Homo sapiens, UniProt P31997).
T1 construct: expressed in transfected cells; host or cells: HeLa (HeLa-CGM6/1)
T1 sequence (P31997 35-320): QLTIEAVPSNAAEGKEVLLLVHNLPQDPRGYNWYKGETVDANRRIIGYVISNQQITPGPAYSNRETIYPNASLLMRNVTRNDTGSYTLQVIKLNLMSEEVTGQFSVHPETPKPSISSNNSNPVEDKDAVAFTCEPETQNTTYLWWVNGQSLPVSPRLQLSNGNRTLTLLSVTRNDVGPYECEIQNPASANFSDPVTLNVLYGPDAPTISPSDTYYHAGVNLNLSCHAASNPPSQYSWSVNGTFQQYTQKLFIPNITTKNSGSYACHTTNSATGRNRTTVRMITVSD
The test is described as follows: Indirect flow cytometry, HeLa-CGM6/1. It counts as binding. The note with it: antibodies at 1/50 dilution of 1 mg/ml stocks. As to the method: The reactivity of antibodies was tested by flow cytometry with a Becton-Dickinson FACSCAN®. The biotinylated second antibody was directed against mouse IgG and was detected by a streptavidin/phycoerythrin conjugate. Tests were carried out with antibodies at 1/50 dilution of 1 mg/ml stocks.
The antibodies MN-3 and MN-15 were tested for recognition of HeLa cells transfected with cDNA coding for CEA (HeLa-CEA2), NCA-90 (HeLa-KNC6/S44) and NCA-95 (HeLa-CGM6/1). As a negative control, HeLa cells transfected with the plasmid pSV2-Neo (control HeLa cells, HeLa-NeoA) were used. In addition to the antibodies MN-3 and MN-15, three control antibodies were included: […]

The subject of another test is LS174T cells. The test is described as follows: Collagen-based invasion assay, LS174T. The note with it: 10% FBS chemoattractant, 72-hour incubation. It counts as cell-based, human. As for the experimental part: Collagen-based invasion assay—The assay was done using CHEMICON® Kit (#ECM551, MILLIPORE®, Billerica, Mass.). Tumor cells at 80% confluence and were serum-starved for 18 to 24 hours before the assay was used. Cells were harvested with 5 mol of 2 mmol/L EDTA/PBS per 100-mm dish and incubated at 37° C. for 5 to 15 minutes. Cells were collected into 10 to 20 mol of quenching medium (serum-free DMEM containing 5% BSA) to inactivate trypsin/EDTA from the harvesting buffer. Cells were pelleted, resuspended in quenching medium (1×10^6 cells/mol), and appropriate antibody Fabs were added to individual cell aliquots. Cell invasion potential was determined as follows. Baseline invasion and invasion in the presence of a chemoattractant (10% FBS) were measured after a 72-hour incubation period at 37° C. in a 5% CO2 incubator. The bottom side of the collagen-coated polycarbonate membrane insert of the invasion chamber was placed in 400 μL of cell stain for 20 minutes at room temperature and washed. The dye was extracted and transferred into a 96-well microtiter plate for colorimetric measurements (A560 nm).

B1: MN-15: murine Class I anti-CEA MAb, IgG1 kappa, binds A1B1 domain of CEACAM5 and CEACAM6 (antibody, V domains shown)
VL: DIQLTQSPAIMSASPGEKVTMTCSASSRVSYIHWYQQKSGTSPKRWIYGTSTLASGVPARFSGSGSGTSYSLTISSMEAEDAATYYCQQWSYNPPTFGAGTKLELKR
VH: EVRLVESGGGLVQGPGSLRLSCAASGFALTDYYMSWVRQSPGKTLEWLGFIANKANGHTTDYSPSVKGRFTISRDNSQTILYLQMNTLRTEDSATYYCARDMGIRWNFDVWGQGTTVTVSS
Consider B1, for which the granulocyte reactivity entry in the test on granulocytes is “granulocyte-reactive; also recorded: high granulocyte reactivity; also recorded: reacted strongly with granulocytes”. In addition, in the test on NCA, MA, CEA, the “reactivity with NCA, MA and CEA” value was “reacted with normal cross-reactive antigen (NCA), MA, and CEA”. The “decrease of adhesion to fibronectin” value in test [1] came to 47%. Besides, the “effect on binding to fibronectin” value in test [2] is listed as “not affecting the binding”. Further, the “binding to NCA-95” value with NCA-95 (HeLa-CGM6/1) was “binds to all three antigens”.

B2: MN-15 Fab′: monovalent Fab′ fragment of murine MN-15 (antibody, V domains shown)
VL: DIQLTQSPAIMSASPGEKVTMTCSASSRVSYIHWYQQKSGTSPKRWIYGTSTLASGVPARFSGSGSGTSYSLTISSMEAEDAATYYCQQWSYNPPTFGAGTKLELKR
VH: EVRLVESGGGLVQGPGSLRLSCAASGFALTDYYMSWVRQSPGKTLEWLGFIANKANGHTTDYSPSVKGRFTISRDNSQTILYLQMNTLRTEDSATYYCARDMGIRWNFDVWGQGTTVTVSS
B2: the “reduction in cell invasion” value in the test on LS174T cells stood at 30%.
